Assay [1] concerns the target “empty” DQ6 (DQA1*01:02/DQB1*06:02) with leucine zippers displayed on yeast as a noncovalent αβ heterodimer (human). In words: flow cytometry on cells. In general terms: Flow cytometry measures light scatter and fluorescence of single cells or particles in a stream.
Assay [2] has as its target soluble DQ6 (sDQ6) recombinant protein, CLIP87–101 linker cleaved by thrombin (human). The assay is described as follows: ELISA.
Assay [3] concerns the target soluble DR4 (sDR4) recombinant protein (human). In words: ELISA. A general note: In an ELISA, binding on a coated surface is turned into a signal by an enzyme label.
Assay [4] deals with soluble DQ6 (sDQ6) recombinant protein, CLIP87–101 linker cleaved by thrombin (human). The assay is described as follows: ELISA. The source holds these as a separate data set.
Assay [5] concerns the target “empty” DQ6 (DQA1*01:02/DQB1*06:02) with leucine zippers displayed on yeast as a noncovalent αβ heterodimer (human). The assay is described as follows: flow cytometry on cells. This is another data set of the same source.

Our source for the %Competition, fold weaker BA than HA306–318 (IC50 normalised to HA306–318) and IC50 values is paper PMC8193015.

Like-named read-outs stand apart in the source and are kept apart here. Ends that are not written are not given here.

Broadly, the IC50 is the concentration at which inhibition is half-maximal. Lower therefore signals higher potency.

In assay [1], “HCRT25–39 peptide (from UniProt O43612 25-39)” showed a %Competition of over 50%. As for “HCRT89–103 peptide (from UniProt O43612 89-103)”, the %Competition at [competitor]:[indicator] = 100 in assay [2] is over 75%. In assay [1], the %Competition was over 75% and the %Competition at [competitor]:[indicator] = 10 is over 75%.

In turn, “HCRT85–99 peptide (from UniProt O43612 85-99)” showed a %Competition in assay [1] of over 50%. On the same count and under the same terms, the same measure for “HCRT21–35 peptide (from UniProt O43612 21-35)”: over 50%; for “HCRT81–95 peptide (from UniProt O43612 81-95)”: over 50%.

Turning to HA306–318 peptide, nonbiotinylated, the %Competition at [competitor]:[indicator] = 10 in assay [3] came to 75%. With “SARS-CoV-2 spike peptide S652–668 (from UniProt P0DTC2 652-668)”, in assay [3], the %Competition at [competitor]:[indicator] = 100 was under 50%. “HCRT53–67 peptide (from UniProt O43612 53-67)”: the %Competition in assay [1] is over 50%.

For “HCRT1–15 peptide (from UniProt O43612 1-15)”, the %Competition in assay [1] was over 50%. On the same count and under the same terms, the same measure for “HCRT57–71 peptide (from UniProt O43612 57-71)”: over 50%. In the case of “SARS-CoV-2 spike peptide S1058–1074 (from UniProt P0DTC2 1058-1074)”, the fold weaker BA than HA306–318 (IC50 normalised to HA306–318) in assay [3] came to 20 fold.

B1: HCRT1–13 peptide, nonbiotinylated (peptide)
peptide: MNLPSTKVSWAAV
modifications: not fully specified
On to B1, for which the %Competition at [competitor]:[indicator] = 10 in assay [4] and in assay [5] was 75% each time. Also, the IC50 in assay [5] came to 30 µM.
